By stoichiometry N is commonly meant a count of units in the complex or per binding partner.

Residue numbers refer to the chain shown, from its start. Read-outs that look alike come from different tables or passages of the source. No end group written: not given here.

This is an account of results in doi:10.1101/370387 (bioRxiv, 2018).

Series [1] concerns the molecule itself. Nature of the series: cryo-EM structure.
Series [2] deals with the molecule itself. Description: cryo-EM structure. The source holds these as a separate data set.

B1: phospholamban Asn27-Ala mutant (canine PLN sequence), super-inhibitory pentameric form (natural protein, UniProt P61012 1-52, looked up)
chain: MDKVQYLTRSAIRRASTIEMPQQARQALQNLFINFCLILICLLLICIIVMLL
modifications: cysteine pairing not given here; also: pentameric form
B1: the “stoichiometry N” value in the series “cryo-EM structure [1]” was 4.

B2: phospholamban Lys27-Ala mutant (human PLN sequence), super-inhibitory pentameric form (natural protein, UniProt P26678 1-52, looked up)
chain: B1 chain with D2E
modifications: cysteine pairing not given here; also: pentameric form
For B2, the “stoichiometry N” value in the series “cryo-EM structure [2]” worked out at 5.
